According to PMC2756588:

T1: Abp1, P15891
T1 sequence (P15891 535-592, looked up): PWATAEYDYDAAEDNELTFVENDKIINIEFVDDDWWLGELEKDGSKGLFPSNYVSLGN

T2: Bbc1, P47068
T2 sequence (P47068 1-78, looked up): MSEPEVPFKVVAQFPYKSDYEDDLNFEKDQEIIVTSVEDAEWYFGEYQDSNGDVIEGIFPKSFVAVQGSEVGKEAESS

T3: Boi1, P38041
T3 sequence (P38041 1-86, looked up): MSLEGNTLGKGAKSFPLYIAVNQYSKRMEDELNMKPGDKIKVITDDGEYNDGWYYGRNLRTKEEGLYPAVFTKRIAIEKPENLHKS

T4: Boi2, P39969
T4 sequence (P39969 32-116, looked up): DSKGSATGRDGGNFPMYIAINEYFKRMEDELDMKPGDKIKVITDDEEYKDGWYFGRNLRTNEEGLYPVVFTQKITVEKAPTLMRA

T5: Bud14, P27637
T5 sequence (P27637 247-328, looked up): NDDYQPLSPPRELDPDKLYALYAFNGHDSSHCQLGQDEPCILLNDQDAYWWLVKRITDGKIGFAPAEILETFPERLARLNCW

T6: Bzz1-1, P38822
T6 sequence (P38822 478-572, looked up): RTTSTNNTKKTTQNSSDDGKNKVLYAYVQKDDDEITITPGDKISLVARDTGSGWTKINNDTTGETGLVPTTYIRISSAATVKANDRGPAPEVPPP

T7: Bzz1-2, P38822
T7 sequence (P38822 568-633, looked up): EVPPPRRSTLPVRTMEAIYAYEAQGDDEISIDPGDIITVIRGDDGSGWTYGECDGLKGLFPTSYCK

T8: Cdc25, P04821
T8 sequence (P04821 50-136, looked up): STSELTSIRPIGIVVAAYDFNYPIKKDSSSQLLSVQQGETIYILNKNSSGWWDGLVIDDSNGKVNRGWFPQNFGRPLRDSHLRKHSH

T9: Cyk3, Q07533
T9 sequence (Q07533 1-83, looked up): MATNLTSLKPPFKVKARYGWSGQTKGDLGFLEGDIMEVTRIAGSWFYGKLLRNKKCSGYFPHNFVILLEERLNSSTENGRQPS

T10: Fus1, P11710
T10 sequence (P11710 432-512, looked up): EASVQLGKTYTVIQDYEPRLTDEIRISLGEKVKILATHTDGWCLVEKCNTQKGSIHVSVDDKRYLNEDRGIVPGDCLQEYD

T11: Hof1, Q05080
T11 sequence (Q05080 590-669, looked up): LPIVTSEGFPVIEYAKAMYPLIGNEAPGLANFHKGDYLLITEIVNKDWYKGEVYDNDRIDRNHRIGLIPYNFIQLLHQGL

T12: Hse1, P38753
T12 sequence (P38753 208-285, looked up): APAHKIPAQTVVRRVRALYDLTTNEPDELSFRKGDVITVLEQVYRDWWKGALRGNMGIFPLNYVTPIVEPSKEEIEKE

T13: Lsb1, P53281
T13 sequence (P53281 45-122, looked up): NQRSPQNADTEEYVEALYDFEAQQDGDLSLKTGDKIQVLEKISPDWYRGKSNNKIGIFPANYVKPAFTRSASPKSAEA

T14: Lsb3, P43603
T14 sequence (P43603 385-451, looked up): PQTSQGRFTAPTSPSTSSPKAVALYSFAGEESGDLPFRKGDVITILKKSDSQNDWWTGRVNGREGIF

T15: Lsb4, P32793
T15 sequence (P32793 402-468, looked up): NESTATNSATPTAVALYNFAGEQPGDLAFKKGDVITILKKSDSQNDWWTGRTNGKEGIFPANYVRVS

T16: Myo5, Q04439
T16 sequence (Q04439 1072-1160, looked up): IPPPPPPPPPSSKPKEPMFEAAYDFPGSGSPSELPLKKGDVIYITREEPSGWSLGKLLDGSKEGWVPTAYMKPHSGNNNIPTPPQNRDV

T17: Nbp2, Q12163
T17 sequence (Q12163 103-180, looked up): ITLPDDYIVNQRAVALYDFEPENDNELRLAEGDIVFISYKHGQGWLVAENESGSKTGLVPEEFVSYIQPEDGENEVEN

T18: Pex13, P80667
T18 sequence (P80667 295-386, looked up): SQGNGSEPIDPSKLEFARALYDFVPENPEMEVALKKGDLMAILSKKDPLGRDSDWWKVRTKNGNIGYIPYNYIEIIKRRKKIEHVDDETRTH

T19: Pin3, Q06449
T19 sequence (Q06449 53-122, looked up): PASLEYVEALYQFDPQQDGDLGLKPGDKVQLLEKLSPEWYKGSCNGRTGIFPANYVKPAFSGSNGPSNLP

T20: Sla1-2, P32790
T20 sequence (P32790 60-140, looked up): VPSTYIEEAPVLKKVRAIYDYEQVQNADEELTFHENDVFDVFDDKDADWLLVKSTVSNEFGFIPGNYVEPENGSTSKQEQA

T21: Sla1-3, P32790
T21 sequence (P32790 344-424, looked up): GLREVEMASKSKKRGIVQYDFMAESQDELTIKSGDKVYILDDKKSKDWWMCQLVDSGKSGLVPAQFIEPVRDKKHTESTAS


These binders were tested against T1, Abp1, P15891 (assay: SPOT array). Conditions: median of control spots 935.

Binder	SPOT intensity
TSIEIPKRSPLRFTS	60
GQYRRTIVIPRRFFT	184
RSKRLFPVRPMATAH	110

What follows are binders tested against T2, Bbc1, P47068 (assay: SPOT array). Conditions: median of control spots 796.

Binder	SPOT intensity
TSIEIPKRSPLRFTS	12
GQYRRTIVIPRRFFT	258
RSKRLFPVRPMATAH	49

These binders were tested against Bem1-1, P29366 (assay: SPOT array). Conditions: median of control spots 4282.
Chain of Bem1-1, P29366 (P29366 55-141): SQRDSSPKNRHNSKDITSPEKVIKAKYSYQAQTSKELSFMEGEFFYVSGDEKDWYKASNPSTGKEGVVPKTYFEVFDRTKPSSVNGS

Binder	SPOT intensity
TSIEIPKRSPLRFTS	0
GQYRRTIVIPRRFFT	0
RSKRLFPVRPMATAH	0

The binders below were run against Bem1-2, P29366 (assay: SPOT array). Conditions: median of control spots 4347.
Chain of Bem1-2, P29366 (P29366 139-227): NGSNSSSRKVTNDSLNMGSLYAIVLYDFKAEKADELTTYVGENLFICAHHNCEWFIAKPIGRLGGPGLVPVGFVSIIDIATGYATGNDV

Binder	SPOT intensity
TSIEIPKRSPLRFTS	0
GQYRRTIVIPRRFFT	17
RSKRLFPVRPMATAH	14

What follows are binders tested against T3, Boi1, P38041 (assay: SPOT array). Conditions: median of control spots 1162.

Binder	SPOT intensity
TSIEIPKRSPLRFTS	3040
GQYRRTIVIPRRFFT	30
RSKRLFPVRPMATAH	0

The binders below were run against T4, Boi2, P39969 (assay: SPOT array). Conditions: median of control spots 1161.

Binder	SPOT intensity
TSIEIPKRSPLRFTS	2740
GQYRRTIVIPRRFFT	6
RSKRLFPVRPMATAH	0

Each binder was assayed against T5, Bud14, P27637 (assay: SPOT array). Conditions: median of control spots 956.

Binder	SPOT intensity
TSIEIPKRSPLRFTS	5
GQYRRTIVIPRRFFT	13
RSKRLFPVRPMATAH	6

The binders below were run against T6, Bzz1-1, P38822 (assay: SPOT array). Conditions: median of control spots 4446.

Binder	SPOT intensity
TSIEIPKRSPLRFTS	0
GQYRRTIVIPRRFFT	3
RSKRLFPVRPMATAH	1

These binders were tested against T7, Bzz1-2, P38822 (assay: SPOT array). Conditions: median of control spots 4538.

Binder	SPOT intensity
TSIEIPKRSPLRFTS	0
GQYRRTIVIPRRFFT	0
RSKRLFPVRPMATAH	13

The binders below were run against T8, Cdc25, P04821 (assay: SPOT array). Conditions: median of control spots 969.

Binder	SPOT intensity
TSIEIPKRSPLRFTS	13
GQYRRTIVIPRRFFT	156
RSKRLFPVRPMATAH	22

Each binder was assayed against T9, Cyk3, Q07533 (assay: SPOT array). Conditions: median of control spots 1451.

Binder	SPOT intensity
TSIEIPKRSPLRFTS	0
GQYRRTIVIPRRFFT	4
RSKRLFPVRPMATAH	0

The binders below were run against T10, Fus1, P11710 (assay: SPOT array). Conditions: median of control spots 1200.

Binder	SPOT intensity
TSIEIPKRSPLRFTS	0
GQYRRTIVIPRRFFT	48
RSKRLFPVRPMATAH	17

What follows are binders tested against GST (assay: SPOT array). Conditions: median of control spots 978.

Binder	SPOT intensity
TSIEIPKRSPLRFTS	0
GQYRRTIVIPRRFFT	5
RSKRLFPVRPMATAH	0

Each binder was assayed against T11, Hof1, Q05080 (assay: SPOT array). Conditions: median of control spots 4086.

Binder	SPOT intensity
TSIEIPKRSPLRFTS	0
GQYRRTIVIPRRFFT	8
RSKRLFPVRPMATAH	7

Each binder was assayed against T12, Hse1, P38753 (assay: SPOT array). Conditions: median of control spots 1727.

Binder	SPOT intensity
TSIEIPKRSPLRFTS	0
GQYRRTIVIPRRFFT	11
RSKRLFPVRPMATAH	12

The binders below were run against T13, Lsb1, P53281 (assay: SPOT array). Conditions: median of control spots 388.

Binder	SPOT intensity
TSIEIPKRSPLRFTS	0
GQYRRTIVIPRRFFT	19
RSKRLFPVRPMATAH	5

What follows are binders tested against T14, Lsb3, P43603 (assay: SPOT array). Conditions: median of control spots 406.

Binder	SPOT intensity
TSIEIPKRSPLRFTS	5
GQYRRTIVIPRRFFT	16
RSKRLFPVRPMATAH	4

These binders were tested against T15, Lsb4, P32793 (assay: SPOT array). Conditions: median of control spots 397.

Binder	SPOT intensity
TSIEIPKRSPLRFTS	8
GQYRRTIVIPRRFFT	28
RSKRLFPVRPMATAH	15

Each binder was assayed against Myo3, P36006 (assay: SPOT array). Conditions: median of control spots 468.

Binder	SPOT intensity
TSIEIPKRSPLRFTS	4
GQYRRTIVIPRRFFT	17
RSKRLFPVRPMATAH	2

These binders were tested against T16, Myo5, Q04439 (assay: SPOT array). Conditions: median of control spots 471.

Binder	SPOT intensity
TSIEIPKRSPLRFTS	2
GQYRRTIVIPRRFFT	2
RSKRLFPVRPMATAH	2

What follows are binders tested against T17, Nbp2, Q12163 (assay: SPOT array). Conditions: median of control spots 357.

Binder	SPOT intensity
TSIEIPKRSPLRFTS	0
GQYRRTIVIPRRFFT	120
RSKRLFPVRPMATAH	46

These binders were tested against T18, Pex13, P80667 (assay: SPOT array). Conditions: median of control spots 1341.

Binder	SPOT intensity
TSIEIPKRSPLRFTS	19
GQYRRTIVIPRRFFT	20
RSKRLFPVRPMATAH	11

The binders below were run against T19, Pin3, Q06449 (assay: SPOT array). Conditions: median of control spots 2171.

Binder	SPOT intensity
TSIEIPKRSPLRFTS	10
GQYRRTIVIPRRFFT	18
RSKRLFPVRPMATAH	12

These binders were tested against Rvs167, P39743 (assay: SPOT array). Conditions: median of control spots 2707.
Chain of Rvs167, P39743 (P39743 419-482): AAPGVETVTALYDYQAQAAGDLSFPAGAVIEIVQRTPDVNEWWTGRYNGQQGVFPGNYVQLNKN

Binder	SPOT intensity
TSIEIPKRSPLRFTS	0
GQYRRTIVIPRRFFT	0
RSKRLFPVRPMATAH	9

Each binder was assayed against Sho1, P40073 (assay: SPOT array). Conditions: median of control spots 1148.
Chain of Sho1, P40073 (P40073 287-367): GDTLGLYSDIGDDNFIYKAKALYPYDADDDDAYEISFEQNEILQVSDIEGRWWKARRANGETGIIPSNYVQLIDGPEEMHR

Binder	SPOT intensity
TSIEIPKRSPLRFTS	8
GQYRRTIVIPRRFFT	124
RSKRLFPVRPMATAH	90

The binders below were run against T20, Sla1-2, P32790 (assay: SPOT array). Conditions: median of control spots 712.

Binder	SPOT intensity
TSIEIPKRSPLRFTS	792
GQYRRTIVIPRRFFT	8
RSKRLFPVRPMATAH	0

The binders below were run against T21, Sla1-3, P32790 (assay: SPOT array). Conditions: median of control spots 5475.

Binder	SPOT intensity
TSIEIPKRSPLRFTS	0
GQYRRTIVIPRRFFT	58
RSKRLFPVRPMATAH	36
